From publication PMC12491506, “Identification of a RAB32-LRMDA-Commander membrane trafficking complex reveals the molecular mechanism of human oculocutaneous albinism type 7” (Nature Communications, 2025) come the findings set out here.

The experiment deals with T1, recombinant LRMDA (tag-less) (human, UniProt A0A087WWI0 1-226).
T1 construct: LRMDA, human, full-length, longer isoform (this isoform was used in all experiments); gene synthesised with codon optimisation for S. frugiperda; also called purified LRMDA; HaloTag-TEV-LRMDA after TEV cleavage; source: Sf21 insect cells (baculovirus), purified (HaloLink resin, TEV cleavage); not shown: HaloTag, N-terminal, cleaved
T1 sequence (looked up): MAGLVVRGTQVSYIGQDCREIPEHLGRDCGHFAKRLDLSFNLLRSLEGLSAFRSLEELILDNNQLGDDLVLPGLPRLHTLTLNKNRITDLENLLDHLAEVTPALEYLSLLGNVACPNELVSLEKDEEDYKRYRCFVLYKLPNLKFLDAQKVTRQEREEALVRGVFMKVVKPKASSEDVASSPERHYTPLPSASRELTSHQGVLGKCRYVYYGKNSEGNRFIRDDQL
The experiment in a line: pull-down; 0.5 µM Retriever (His-tagged VPS29) on TALON resin with 1 µM LRMDA and 1 µM RAB32 together; 50 mM HEPES pH 7.2, 150 mM NaCl, 2 mM β-mercaptoethanol, 0.1% Triton X-100; 45 min at 4 °C; washes with 10 mM imidazole. Conditions: both partners purified.

B1: recombinant RAB32 (tag-less) (natural protein, human, UniProt Q13637 1-225, looked up)
chain: MAGGGAGDPGLGAAAAPAPETREHLFKVLVIGELGVGKTSIIKRYVHQLFSQHYRATIGVDFALKVLNWDSRTLVRLQLWDIAGQERFGNMTRVYYKEAVGAFVVFDISRSSTFEAVLKWKSDLDSKVHLPNGSPIPAVLLANKCDQNKDSSQSPSQVDQFCKEHGFAGWFETSAKDNINIEEAARFLVEKILVNHQSFPNEENDVDKIKLDQETLRAENKSQCC
notes: RAB32, human, full-length; also called purified RAB32; GST-TEV-RAB32 after TEV cleavage; source: Sf21 insect cells (baculovirus), purified (Glutathione Sepharose 4b, TEV cleavage); not shown: GST, N-terminal, cleaved
Consider B1, for which the binding result is “binds”.
